{"source": "paper PMC8626469", "about": "(2021)", "binders": {"B1": {"name": "Helicobacter pylori holo-acyl carrier protein (natural protein)", "chain": "MALFEDIQAVIAEQLNVDAVQVTPEAEFVKDLGADSLDVVELIMALEEKFGVEIPDEQAEKIINVGDVVKYIEDNKLA", "modifications": "phosphopantetheine group (PPant) on Ser36"}}, "key": {"[1]": {"molecular_target": "Helicobacter pylori FabX R164A (H. pylori)", "assay": "ITC"}, "Helicobacter pylori FabX": {"molecular_target": "T1, Helicobacter pylori FabX (H. pylori)", "T1 chain": "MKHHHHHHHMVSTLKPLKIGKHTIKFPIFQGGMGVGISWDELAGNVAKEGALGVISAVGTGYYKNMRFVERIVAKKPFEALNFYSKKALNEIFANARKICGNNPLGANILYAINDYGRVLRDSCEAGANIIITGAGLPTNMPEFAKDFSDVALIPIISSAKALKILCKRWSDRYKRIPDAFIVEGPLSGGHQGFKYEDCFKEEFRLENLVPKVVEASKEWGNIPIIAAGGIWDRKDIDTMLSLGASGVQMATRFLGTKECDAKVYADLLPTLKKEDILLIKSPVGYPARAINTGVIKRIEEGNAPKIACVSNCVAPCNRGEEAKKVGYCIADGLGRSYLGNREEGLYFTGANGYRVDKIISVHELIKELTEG", "assay": "ITC"}}, "data": [{"binder": "B1", "values": [{"measurement": "Kd", "setting": "[1]", "result": "> 200", "unit": "µM"}, {"measurement": "Kd", "setting": "Helicobacter pylori FabX", "result": 1640, "unit": "nM"}]}]}
